A word on the stoichiometry N: it is the number of molecules, sites or subunits per partner or assembly.

Common to all, as to assay: SEC
(SEC sorts molecules by how far they enter the pores of the column.)

In experiment [1] the target is His6 tagged recombinant IN(R269A/K273A/D256N/D270N) (HIV-1 (NL4-3)).
For experiment [2], the target named is His6 tagged recombinant IN(D256R/R262A/R263A) (HIV-1 (NL4-3)).
The target of experiment [3] is His6 tagged recombinant IN(R269A/K273A/D256R) (HIV-1 (NL4-3)).

“His6 tagged recombinant IN(R269A/K273A/D256N/D270N) (enzyme)”: the stoichiometry N in experiment [1] turned out to be 4.
“His6 tagged recombinant IN(D256R/R262A/R263A) (enzyme)”: the stoichiometry N in experiment [2] was found to be 4.
With “His6 tagged recombinant IN(R269A/K273A/D256R) (enzyme)”, in experiment [3], the stoichiometry N amounted to 4.

For the origin of these results see paper PMC9601147.
